Measured values as given in PMC9009374.

Target: Venus-tagged carboxy-tail segment of CaV1.2 (UniProt P15381)
Test: FRET or BRET

Sequence of UniProt P15381 (P15381 1525-2171): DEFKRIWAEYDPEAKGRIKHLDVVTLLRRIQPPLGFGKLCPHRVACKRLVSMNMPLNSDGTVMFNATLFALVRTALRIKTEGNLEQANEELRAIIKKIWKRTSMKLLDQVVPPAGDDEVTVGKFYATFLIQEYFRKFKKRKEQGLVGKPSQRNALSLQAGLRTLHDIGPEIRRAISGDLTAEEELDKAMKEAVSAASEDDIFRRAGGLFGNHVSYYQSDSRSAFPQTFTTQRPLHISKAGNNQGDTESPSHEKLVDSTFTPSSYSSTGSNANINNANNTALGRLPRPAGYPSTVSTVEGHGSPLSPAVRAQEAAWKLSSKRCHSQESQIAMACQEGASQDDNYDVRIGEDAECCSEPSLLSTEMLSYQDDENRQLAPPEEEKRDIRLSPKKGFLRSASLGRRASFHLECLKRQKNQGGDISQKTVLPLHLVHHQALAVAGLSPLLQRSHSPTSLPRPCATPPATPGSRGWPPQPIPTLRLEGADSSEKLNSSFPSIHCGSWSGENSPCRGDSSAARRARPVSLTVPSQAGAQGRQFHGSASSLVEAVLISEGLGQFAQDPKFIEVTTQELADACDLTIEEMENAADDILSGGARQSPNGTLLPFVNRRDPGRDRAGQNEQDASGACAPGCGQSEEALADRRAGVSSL

Work on “Cerulean-tagged calmodulin (CaM) (from UniProt P0DP23 1-149) (natural protein)” yielded a stoichiometry N of 1.
